Among the data in paper PMC11364227 are Kd values, retold here.

By Kd is commonly meant the concentration at which binding is half-saturated. Read a low Kd as a tighter complex.

The assay addresses SARS-CoV-2 prototype-Beta RBD-dimer PB (two truncated RBDs, 329-537, in tandem) (SARS-CoV-2 (prototype) | SARS-CoV-2 (Beta variant)) (UniProt P0DTC2). The assay can be described thus: SPR. For orientation: Surface plasmon resonance follows binding to a sensor surface in real time, without labels.
For XGv347, the equilibrium dissociation constant (Kd) is 0.2 nM.

Substance S309 came in with a Kd of 7.6 nM. In turn, S2K146 registered a dissociation constant (Kd) of 4 nM.

With C022, the Kd stood at 5.1 nM. Substance CR3022 came in with a Kd of 293 nM. The same measure for SA55: 6.6 nM; for S2H97: 1.6 nM.
